Source: patent US20250092135A1 (NANJING LEADS BIOLABS, published 2025)
Residue numbers refer to the chain shown, from its start.

T1: cynomolgus monkey GPRC5D protein (cynomolgus monkey, UniProt Q9NZD1 1-343 (human entry))
T1 construct: also called CynoGPRC5D; on HEK293T-CynoGPRC5D cells
T1 chain: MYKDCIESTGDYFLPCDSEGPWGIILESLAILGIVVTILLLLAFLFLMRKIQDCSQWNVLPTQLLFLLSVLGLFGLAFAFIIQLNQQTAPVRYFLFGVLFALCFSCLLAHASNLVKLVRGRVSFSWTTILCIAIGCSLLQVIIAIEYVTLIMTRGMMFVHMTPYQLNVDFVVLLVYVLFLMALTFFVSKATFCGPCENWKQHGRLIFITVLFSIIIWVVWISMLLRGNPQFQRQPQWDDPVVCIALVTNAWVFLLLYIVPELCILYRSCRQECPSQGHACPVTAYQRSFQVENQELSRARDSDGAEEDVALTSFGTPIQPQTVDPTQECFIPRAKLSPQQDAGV

B1: chimeric antibody 29H12C9 (antibody, human IgG1, kappa, V domains shown)
VH: QVQLQQPGAELVKPGASVKLSCKASGYTFTTHYMYWVKQRPGQGLEWIGGINPSNGATNFNEKFKTKATLTVDKSSSTAYMQLSSLTSEDSAVYYCTRVGGLSYTMDYWGQGTSVTVSS
VL: DIVMSQSPSSLAVSVGEKVSMSCKSSQSLLYSSNQKNYLAWYQQKPGQSPKLLIYWASTRESGVPDRFTGSGYGTDFTLTISSMKAEDLAVYYCQQYYSYPRTFGGGTKLDIKR
notes: also called murine chimeric antibody 29H12C9; murine control antibody (29H12C9)
B2: chimeric antibody 39A9F1 (antibody, human IgG1, kappa, V domains shown)
VH: QVQLQQPGAELVKPGSSVKLSCKASGYTFTTYWMEWVKQRPGQGLEWIGEINPNNGRSNYNEKFQTKATLTVDKSSSTAYMQFSSLTSEDSAVYYCARERAGLTYWGQGTLVIVSA
VL: DVVMTQTPLSLPVSLGDQASISCRSSQSLVHSNGNTYLHWYLQKPGQSPKLLIYKVSNRFSGVPDRFGGSGSGTDFTLKISRVEAEDLGVYFCSQSTHFPYTFGGGTKLEIKR
notes: Murine variable regions on human IgG1 and kappa constant regions
B3: chimeric antibody 4B9E9 (antibody, human IgG1, kappa, V domains shown)
VH: DVQLVESGGGLVQPRGSRKLSCAASGFTFSSFGMHWVRQAPEKGLEWVAYISSDSNTIYYADTVQGRFTISRDNPKNTLFLQMTRLRSEDTAMYYCARNPWYFDVWGAGTTVTVSS
VL: DVLMTQTPLSLPVSLGDQVSISCRSSQSIVHSNGNTYLEWFLQKPGQSPKLLIYKVSNRFSGVPDRFSGSGSGTDFTLKISRVEAEDLGIYYCFQGSHIPPTFGGGTKLEIKR
notes: as for B2
B4: humanized anti-GPRC5D antibody 29H2 (antibody, human IgG1, kappa, V domains shown)
VH: QVQLVQSGAEVKKPGASVKVSCKASGYTFTTHYMYWVRQAPGQGLEWMGGINPSNGATNFNEKFKTRVTLTVDKSTSTAYMELSSLRSEDTAVYYCTRVGGLSYTMDYWGQGTLVTVSS
VL: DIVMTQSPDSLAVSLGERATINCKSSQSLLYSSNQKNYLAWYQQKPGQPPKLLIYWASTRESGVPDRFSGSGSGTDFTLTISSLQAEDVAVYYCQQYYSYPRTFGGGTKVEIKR
notes: Human IgG1 / kappa
B5: humanized anti-GPRC5D antibody 29H20 (antibody, human IgG1, kappa, V domains shown)
VH: B4 VH with M48I, T76I, S85R, E89D
VL: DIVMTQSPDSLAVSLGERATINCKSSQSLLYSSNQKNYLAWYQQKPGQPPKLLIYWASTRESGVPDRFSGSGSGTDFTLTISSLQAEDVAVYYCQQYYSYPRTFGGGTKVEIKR
notes: Human IgG1 / kappa
B6: humanized anti-GPRC5D antibody 29H24 (antibody, human IgG1, kappa, V domains shown)
VH: B4 VH with R38K, M48I, R67K, V68A, T76I, S85R, E89D
VL: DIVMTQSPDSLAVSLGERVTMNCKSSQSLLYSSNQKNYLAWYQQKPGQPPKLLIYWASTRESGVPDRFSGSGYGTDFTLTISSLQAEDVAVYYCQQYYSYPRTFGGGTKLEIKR
notes: Human IgG1 / kappa
B7: humanized anti-GPRC5D antibody 29H21 (antibody, human IgG1, kappa, V domains shown)
VH: B4 VH with M48I, T76I, S85R, E89D
VL: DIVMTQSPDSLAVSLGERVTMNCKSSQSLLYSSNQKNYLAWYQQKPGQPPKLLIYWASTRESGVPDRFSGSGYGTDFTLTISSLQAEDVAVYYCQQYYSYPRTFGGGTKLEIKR
notes: Human IgG1 / kappa
B8: humanized anti-GPRC5D antibody 29H6 (antibody, human IgG1, kappa, V domains shown)
VH: B4 VH with M48I, R67K, V68A
VL: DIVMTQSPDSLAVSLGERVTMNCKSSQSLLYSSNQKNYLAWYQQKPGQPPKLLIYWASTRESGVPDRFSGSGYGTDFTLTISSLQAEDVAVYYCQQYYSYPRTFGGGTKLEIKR
notes: Human IgG1 / kappa
B9: anti-CD3/GPRC5D bispecific antibody Bi-29H6/23L2 (bispecific antibody, human IgG1, kappa, L234A L235A)
heavy 1: QVQLVQSGAEVKKPGASVKVSCKASGYTFTTHYMYWVRQAPGQGLEWIGGINPSNGATNFNEKFKTKATLTVDKSTSTAYMELSSLRSEDTAVYYCTRVGGLSYTMDYWGQGTLVTVSSASTKGPSVFPLAPSSKSTSGGTAALGCLVKDYFPEPVTVSWNSGALTSGVHTFPAVLQSSGLYSLSSVVTVPSSSLGTQTYICNVNHKPSNTKVDKKVEPKSCDKTHTCPPCPAPEAAGGPSVFLFPPKPKDTLMISRTPEVTCVVVAVSHEDPEVKFNWYVDGVEVHNAKTKPREEQYNSTYRVVSVLTVLHQDWLNGKEYKCKVSNKALAAPIEKTISKAKGQPREPQVCTLPPSRDELTKNQVSLSCAVKGFYPSDIAVEWESNGQPENNYKTTPPVLDSDGSFFLVSKLTVDKSRWQQGNVFSCSVMHEALHNHYTQKSLSLSPGK
heavy 2: not shown
light: not shown
B10: anti-CD3/GPRC5D bispecific antibody Bi-29H6-2 (bispecific antibody, human IgG1, kappa, L234A L235A)
heavy 1: B9 heavy 1
heavy 2: not shown
light: not shown
B11: anti-CD3/GPRC5D bispecific antibody Bi-29H6-5 (bispecific antibody, human IgG1, kappa, L234A L235A)
heavy 1: B9 heavy 1 with N55S
heavy 2: not shown
light: not shown
B12: anti-CD3/GPRC5D bispecific antibody Bi-29H6GE/23L2 (bispecific antibody, human IgG1, kappa, L234A L235A)
heavy 1: B9 heavy 1 with G56E
heavy 2: not shown
light: not shown
B13: anti-CD3/GPRC5D bispecific antibody Bi-29H6-1 (bispecific antibody)
chain: EPKSSDKTHTCPPCPAPEAAGGPSVFLFPPKPKDTLMISRTPEVTCVVVAVSHEDPEVKFNWYVDGVEVHNAKTKPREEQYNSTYRVVSVLTVLHQDWLNGKEYKCKVSNKALAAPIEKTISKAKGQPREPQVCTLPPSRDELTKNQVSLSCAVKGFYPSDIAVEWESNGQPENNYKTTPPVLDSDGSFFLVSKLTVDKSRWQQGNVFSCSVMHEALHNHYTQKSLSLSPGK
heavy: not shown
light: not shown
B14: anti-CD3/GPRC5D bispecific antibody Bi-29H6-3 (bispecific antibody)
chain: B13 chain
heavy: not shown
light: not shown

What was measured:
human GPRC5D protein [1] = biological target: T2, human GPRC5D protein (human, UniProt Q9NZD1 1-345); assay: flow cytometry, HEK293T-HuGPRC5D cells (sheet: 293T-huGPRC5D), PE anti-human IgG Fc secondary, MFI
T2 construct: NCI-H929 cells express it endogenously in the functional assays; also called HuGPRC5D; huGPRC5D
Description: (§1) Whether the anti-GPRC5D chimeric antibodies in the present invention could bind to the human GPRC5D protein or cynomolgus monkey GPRC5D protein stably expressed on the cell surface was determined by cell binding experiments.
(§2) The HEK293T-HuGPRC5D cell line and HEK293T-CynoGPRC5D shown in Table 2 were subjected to enzymatic digestion to obtain single cell suspensions of the two types of cells. The single cell suspensions were centrifuged at room temperature at 400×g, and then the media were discarded. The resulting cell pellets were washed once with PBS and then resuspended in the serially diluted anti-GPRC5D chimeric antibodies shown in Table 5 and the control antibody GC5B596 (at an initial concentration of 133.3 nM, 4-fold gradient dilution, 8 concentrations in total), and the cells were incubated at 4° C. for 30 min. The cells were washed once with PBS, and then fluorescent secondary antibody R-PE-conjugated AffiniPure Goat Anti-Human IgG, Fcγ Fragment Specific (Jackson ImmunoResearch, Cat #109-116-098) diluted in a 1:200 ratio was added. The cells were incubated in the dark at 4° C. for 30 min. The cells were washed twice with PBS and then resuspended, and finally, two-channel fluorescence signals were detected using a BD Accuri C5 (BD Bioscience) flow cytometer.

[2] = biological target: T1, cynomolgus monkey GPRC5D protein; assay: flow cytometry, HEK293T-CynoGPRC5D cells (sheet: 293T-cynoGPRC5D), PE anti-human IgG Fc secondary, MFI
Description: as §1, §2

human GPRC5D protein [3] = biological target: T2, human GPRC5D protein; assay: flow cytometry, HEK293T-HuGPRC5D cells (sheet: 293T-huGPRC5D), PE anti-human IgG Fc secondary, MFI; remark: listed apart in the source
Description: Whether the anti-GPRC5D humanized antibodies in the present invention could bind to the human GPRC5D protein stably expressed on the cell surface was determined by cell binding experiments. The HEK293T-HuGPRC5D cell line shown in Table 2 was subjected to enzymatic digestion to obtain a single cell suspension of the HEK293T-huGPRC5D cells. The single cell suspension was centrifuged at room temperature at 400×g, and then the medium was discarded. The cell pellet was washed once with PBS and then resuspended in the serially diluted anti-GPRC5D humanized antibodies and the murine chimeric antibody 29H12C9 (at an initial concentration of 166.67 nM, 4-fold gradient dilution, 8 concentration points in total), and the cells were incubated at 4° C. for 30 min. The cells were washed once with PBS, and then fluorescent secondary antibody R-PE-conjugated AffiniPure Goat Anti-Human IgG, Fcγ Fragment Specific (Jackson ImmunoResearch, Cat #109-116-098) diluted in a 1:200 ratio was added. The cells were incubated in the dark at 4° C. for 30 min. The cells were washed twice with PBS and then resuspended, and finally, two-channel fluorescence signals were detected using a Beckman Cytoflex flow cytometer.

human GPRC5D protein [4] = biological target: T2, human GPRC5D protein; assay: flow cytometry, HEK293T cells stably expressing human GPRC5D (sheet: 293T-huGPRC5D), PE anti-human IgG Fc secondary, MFI
Description: (2) Whether the anti-CD3/anti-GPRC5D bispecific antibodies in the present invention could bind to HEK293T cells stably expressing the human GPRC5D protein was determined by cell binding experiments. […] The plate was centrifuged at room temperature at 400×g, and then the supernatant was discarded. The cells were washed twice with PBS and centrifuged. The supernatant was discarded. The cell pellet was resuspended in fluorescent secondary antibody R-PE-conjugated AffiniPure Goat Anti-Human IgG, Fcγ Fragment Specific (Jackson ImmunoResearch, Cat #109-116-098) diluted in a 1:200 ratio. The cells were incubated in the dark at 4° C. for 30 min. The cells were washed twice with PBS, and 100 μL of PBS was added to each well to resuspend the cells. Fluorescence signals were detected using a Beckman Cytoflex flow cytometer.

T2 sequence (Q9NZD1 whole entry): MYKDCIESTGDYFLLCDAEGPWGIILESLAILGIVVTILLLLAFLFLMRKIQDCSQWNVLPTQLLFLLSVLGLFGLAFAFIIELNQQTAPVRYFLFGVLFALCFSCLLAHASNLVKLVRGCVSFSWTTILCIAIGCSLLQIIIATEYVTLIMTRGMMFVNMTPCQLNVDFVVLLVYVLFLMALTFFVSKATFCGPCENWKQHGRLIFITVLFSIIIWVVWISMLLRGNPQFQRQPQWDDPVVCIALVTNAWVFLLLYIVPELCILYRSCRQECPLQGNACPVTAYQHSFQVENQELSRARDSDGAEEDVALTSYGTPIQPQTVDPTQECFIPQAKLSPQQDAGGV

Binder | binding result (human GPRC5D protein [3]) | EC50 (read off the curve) (human GPRC5D protein [4]) [nM] | other results
B1 | – | – | EC50 (read off the curve) (human GPRC5D protein [1]): ~3 nM; EC50 (read off the curve) [2]: ~3 nM
B2 | – | – | EC50 (read off the curve) (human GPRC5D protein [1]): ~3 nM; EC50 (read off the curve) [2]: ~4 nM
B3 | – | – | EC50 (read off the curve) (human GPRC5D protein [1]): ~3 nM; binding result [2]: binds
B4 | binds | – | –
B5 | binds | – | –
B6 | binds | – | –
B7 | binds | – | –
B8 | binds | – | –
B9 | – | ~3 | –
B10 | – | ~2 | –
B11 | – | – | binding result (human GPRC5D protein [4]): binds
B12 | – | ~3 | –
B13 | – | ~6 | –
B14 | – | ~10 | –
